{"source": "patent US20240067683A1", "about": "“USE OF MCM8-CGAS-STING-IFN-I SIGNAL PATHWAY AS DISEASE TARGET” (Guangzhou Women and Children's Medical Center, priority 2020, published 2024)", "key": {"MCM8 [1]": {"tested_on": "MCM8", "test": "Nuclear export of MCM8 detected by nuclear-cytoplasmic separation", "assay_type": "cell-based", "experimental": "The cells were treated with leptomycin B, a nuclear export inhibitor, to inhibit the protein shuttle out of the nucleus, and the expressions of MCM8 in the cytoplasm (cyto) and the nucleus (nuc) were respectively detected by nuclear-cytoplasmic separation. […] It could be seen that ubiquitination was essential for the nuclear export of MCM8. […] (see Panel f, FIG. 12)."}, "MCM8 [2]": {"tested_on": "MCM8", "test": "TRIM21-mediated ubiquitination of MCM8", "assay_type": "cell-based"}, "IFN-I": {"tested_on": "IFN-I", "test": "IFN-I in MCM8-knockdown THP-1 cells stimulated with SeV, with CsA or EtBr (mitochondrion-free p0 cells) treatment", "assay_type": "cell-based, human", "settings": "mitochondrion-free p0 THP-1 cells from EtBr treatment", "experimental": "(§1) To further verify the mechanism of MCM8-cGAS-STING pathway, the inventors knocked down MCM8 in THP-1 cells, stimulated the cells with SeV, and then treated the cells with MTP complex pore inhibitor cyclosporine A (CsA) ([…]) to inhibit the release of mitochondrial DNA. […] The results were similar when the mitochondria in the cells were removed by EtBr treatment. The process was as follows: THP-1 cells were treated with EtBr to completely remove the mitochondrial DNAs in the cells to construct mitochondrion-free p0 cells, MCM8 was knocked down in normal THP-1 or p0 THP-1, the cells were then stimulated with SeV, the expressions of IFN-α and IFN-β were detected by Q-PCR, and the level of pIRF3 (IRF3 protein activated by phosphorylation) was detected by western blot. […] In Panel D, four columns are taken as a group and represent, from left to right, ctrl siRNA blank control group, MCM8 siRNA control group, ctrl siRNA group of mitochondrion-free cells, and MCM8 siRNA group of mitochondrion-free cells. […] On the contrary, drugs that inhibits or eliminats mtDNA can block the function of MCM8 in regulating IFN-I, and MCM8-knockdown activates cGAS-STING-IFN-I signaling pathway by increasing the amount of cytoplasmic mtDNA."}, "pIRF3": {"tested_on": "pIRF3", "test": "pIRF3 level by western blot in normal or p0 THP-1 cells, MCM8 knockdown, SeV stimulation", "assay_type": "cell-based, human", "settings": "mitochondrion-free p0 THP-1 cells from EtBr treatment", "experimental": "as §1"}, "LC3": {"tested_on": "LC3", "test": "Binding of full-length, truncated and point-mutated MCM8 to LC3", "description": "Proteins that directly bind to LC3 generally have a LIR motif, the inventors, when predicting with website whether MCM8 has a LIR motif, find that the sequence between the sites MCM8 272-277 is LIR motif. According to the functional domain of MCM8, the inventors constructed truncated mutants in various truncated forms of MCM8 and detected the results of the binding thereof to LC3.\nBy means of 3D structure prediction, the binding of MCM8 LIR motif to LC3 was simulated (see Panels C and D, FIG. 5)."}, "IFN-β": {"tested_on": "IFN-β", "test": "IFN-β mRNA level by Q-PCR in 293T cells overexpressing MCM8 or its mutants, stimulated with poly(dA:dT)", "assay_type": "cell-based", "settings": "200 ng overexpressed", "experimental": "Besides the previously found A276P and S365N mutations, the inventors found other point mutations related to Kawasaki disease, namely, S280C mutation and S764A mutation, and further conducted cloning and cell experiments, comprising the steps of using 293T cells to separately overexpress 200 ng MCM8, and each of mutants, namely, MCM8 (A276P), MCM8 (S280C), MCM8 (S365N) and MCM8 (S764A); and 24 hours after transfection, stimulating the cells with poly(dA:dT) for 0, 12 and 24 h, collecting RNA, and detecting the mRNA level of IFN-β by Q-PCR. […] Therefore, it can be further considered that the previously found mutations A276P and S365N in MCM8 are both mutation factors that affect the function of MCM8 in regulating IFN-I and lead to Kawasaki disease, while the mutations S280C and S764A are also newly discovered mutations in systemic vasculitis such as Kawasaki disease. These two mutations may be used to diagnose or assist in the diagnosis of Kawasaki disease and systemic vasculitis diseases similar to Kawasaki disease (e.g., systemic lupus erythematosus)."}, "mitochondrial LC3": {"tested_on": "mitochondrial LC3", "test": "Western blot of mitochondrial LC3 and mitochondrial proteins in Hela cells overexpressing MCM8", "assay_type": "cell-based", "settings": "with or without LPS or SeV, vs EV control", "description": "Based on the findings in Embodiment 6, MCM8 is related to the amount of cytoplasmic mtDNA and cGAS-STING-IFN-I signaling pathway, while the amount of mtDNA is related to mitophagy, and therefore, the experiment was further carried out as follows. Experiment of MCM8-knockdown inhibiting mitophagy-related proteins: in MCM8-knockdown THP-1 cells, detection indicators related to mitophagy were studied. The cells were stimulated or not stimulated with LPS and SeV, respectively, and the expressions of mitochondrial LC3 and other mitochondrial proteins TOM20, MFN2, PINK1 and COXIV were detected by western blot. It was found from the results that, compared with the control group (Ctrl siRNA), MCM8-knockdown could inhibit the activation of mitochondrial LC3 and increase the amounts of mitochondrial proteins (TOM20, MFN2, PINK1, and COXIV) (see Panel A, FIG. 4). Correspondingly, MCM8 (Flag-MCM8) was overexpressed in Hela cells, the cells were stimulated or not stimulated with LPS and SeV, respectively, and the expressions of mitochondrial LC3 and other mitochondrial proteins (TOM20, MFN2, PINK1, and COXIV) were detected by western blot."}, "TRIM21": {"target": "T1, TRIM21 (Homo sapiens, UniProt P19474)", "T1 construct": "Flag; expressed in transfected cells; host or cells: HeLa", "T1 sequence (P19474 whole entry)": "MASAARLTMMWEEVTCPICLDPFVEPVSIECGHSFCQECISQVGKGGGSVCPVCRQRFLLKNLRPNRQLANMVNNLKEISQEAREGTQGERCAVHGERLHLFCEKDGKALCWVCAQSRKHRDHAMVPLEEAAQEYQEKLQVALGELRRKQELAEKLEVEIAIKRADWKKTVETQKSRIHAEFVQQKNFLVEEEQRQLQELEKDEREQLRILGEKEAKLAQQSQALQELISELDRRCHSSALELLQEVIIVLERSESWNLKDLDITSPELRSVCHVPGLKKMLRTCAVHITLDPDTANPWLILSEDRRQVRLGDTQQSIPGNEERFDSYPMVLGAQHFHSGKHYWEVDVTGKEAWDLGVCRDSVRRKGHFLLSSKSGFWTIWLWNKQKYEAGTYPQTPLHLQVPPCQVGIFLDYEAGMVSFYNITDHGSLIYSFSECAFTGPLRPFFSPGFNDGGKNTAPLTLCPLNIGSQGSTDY", "test": "Co-immunoprecipitation of Flag-TRIM21 and HA-MCM8 in HeLa cells", "assay_type": "binding", "description": "Further, HeLa cells were transfected with Flag-TRIM21 and HA-MCM8 and subjected to co-immunoprecipitation analysis."}, "[3]": {"settings": "stimulation with LPS and poly(dA:dT)"}}}
{"molecule": "CC(=N)NCc1cccc(CN)c1", "note": "[1400W]", "values": [{"measurement": "nuclear export of MCM8", "setting": "MCM8 [1]; [3]", "value": "inhibited"}, {"measurement": "ubiquitination of MCM8 mediated by TRIM21", "setting": "MCM8 [2]", "value": "significantly inhibited"}]}
{"molecule": "CC[n+]1c(-c2ccccc2)c2cc(N)ccc2c2ccc(N)cc21.[Br-]", "note": "[EtBr]", "values": [{"measurement": "function of MCM8 in regulating IFN-I (IFN-α and IFN-β expression, Q-PCR)", "setting": "IFN-I", "value": "blocked"}, {"measurement": "expression of pIRF3 protein", "setting": "pIRF3", "value": "significantly inhibited"}]}
{"molecule": "NS(=O)(=O)OC[C@H]1C[C@@H](Nc2ccnc3cc(-c4cccc(SC(F)(F)F)c4)nn23)[C@H](O)[C@@H]1O", "note": "[TAK-243]", "values": [{"measurement": "nuclear export of MCM8", "setting": "MCM8 [1]; [3]", "value": "obviously inhibited"}]}
{"molecule": "CCC(=C/[C@H](C)C/C=C/C(C)=C/[C@@H](C)C(=O)[C@@H](C)[C@H](O)[C@@H](C)C/C(C)=C/C(=O)O)/C=C/[C@@H]1OC(=O)C=C[C@@H]1C", "note": "[leptomycin B]", "values": [{"measurement": "nuclear export of MCM8", "setting": "MCM8 [1]; stimulation with SeV and LPS", "value": "significantly inhibited"}]}
{"molecule": "MCM8: Full-length MCM8 protein (SEQ ID NO: 2), overexpressed in cells (protein, listed as Homo sapiens, Flag or HA tag) MNGEYRGRGFGRGRFQSWKRGRGGGNFSGKWREREHRPDLSKTTGKRTSEQTPQFLLSTKTPQSMQSTLDRFIPYKGWKLYFSEVYSDSSPLIEKIQAFEKFFTRHIDLYDKDEIERKGSILVDFKELTEGGEVTNLIPDIATELRDAPEKTLACMGLAIHQVLTKDLERHAAELQAQEGLSNDGETMVNVPHIHARVYNYEPLTQLKNVRANYYGKYIALRGTVVRVSNIKPLCTKMAFLCAACGEIQSFPLPDGKYSLPTKCPVPVCRGRSFTALRSSPLTVTMDWQSIKIQELMSDDQREAGRIPRTIECELVHDLVDSCVPGDTVTITGIVKVSNAEEGSRNKNDKCMFLLYIEANSISNSKGQKTKSSEDGCKHGMLMEFSLKDLYAIQEIQAEENLFKLIVNSLCPVIFGHELVKAGLALALFGGSQKYADDKNRIPIRGDPHILVVGDPGLGKSQMLQAACNVAPRGVYVCGNTTTTSGLTVTLSKDSSSGDFALEAGALVLGDQGICGIDEFDKMGNQHQALLEAMEQQSISLAKAGVVCSLPARTSIIAAANPVGGHYNKAKTVSENLKMGSALLSRFDLVFILLDTPNEHHDHLLSEHVIAIRAGKQRTISSATVARMNSQDSNTSVLEVVSEKPLSERLKVVPGETIDPIPHQLLRKYIGYARQYVYPRLSTEAARVLQDFYLELRKQSQRLNSSPITTRQLESLIRLTEARARLELREEATKEDAEDIVEIMKYSMLGTYSDEFGNLDFERSQHGSGMSNRSTAKRFISALNNVAERTYNNIFQFHQLRQIAKELNIQVADFENFIGSLNDQGYLLKKGPKVYQLQTM", "values": [{"measurement": "direct binding to LC3", "setting": "LC3; mass spectrometry experiments", "value": "could directly bind to LC3"}, {"measurement": "IFN-β level (mRNA, Q-PCR)", "setting": "IFN-β; poly(dA:dT) 0 h", "value": 0}, {"measurement": "IFN-β level (mRNA, Q-PCR)", "setting": "IFN-β; poly(dA:dT) 12 h", "value": 100}, {"measurement": "IFN-β level (mRNA, Q-PCR)", "setting": "IFN-β; poly(dA:dT) 24 h", "value": 250}, {"measurement": "activation of LC3", "setting": "mitochondrial LC3", "value": "promoted the activation of LC3 more obviously"}, {"measurement": "mitochondrial proteins (TOM20, MFN2, PINK1, COXIV)", "setting": "mitochondrial LC3", "value": "inhibited the increase of mitochondrial proteins"}, {"measurement": "binding to TRIM21 upon stimulation", "setting": "TRIM21; LPS or poly(dA:dT)", "value": "the binding increased"}, {"measurement": "binding to E3 ubiquitin ligase TRIM21", "setting": "TRIM21; co-immunoprecipitation", "value": "could bind"}]}
{"molecule": "MCM8 (S280C): MCM8 with point mutation S280C (protein, listed as Homo sapiens) MNGEYRGRGFGRGRFQSWKRGRGGGNFSGKWREREHRPDLSKTTGKRTSEQTPQFLLSTKTPQSMQSTLDRFIPYKGWKLYFSEVYSDSSPLIEKIQAFEKFFTRHIDLYDKDEIERKGSILVDFKELTEGGEVTNLIPDIATELRDAPEKTLACMGLAIHQVLTKDLERHAAELQAQEGLSNDGETMVNVPHIHARVYNYEPLTQLKNVRANYYGKYIALRGTVVRVSNIKPLCTKMAFLCAACGEIQSFPLPDGKYSLPTKCPVPVCRGRSFTALRSCPLTVTMDWQSIKIQELMSDDQREAGRIPRTIECELVHDLVDSCVPGDTVTITGIVKVSNAEEGSRNKNDKCMFLLYIEANSISNSKGQKTKSSEDGCKHGMLMEFSLKDLYAIQEIQAEENLFKLIVNSLCPVIFGHELVKAGLALALFGGSQKYADDKNRIPIRGDPHILVVGDPGLGKSQMLQAACNVAPRGVYVCGNTTTTSGLTVTLSKDSSSGDFALEAGALVLGDQGICGIDEFDKMGNQHQALLEAMEQQSISLAKAGVVCSLPARTSIIAAANPVGGHYNKAKTVSENLKMGSALLSRFDLVFILLDTPNEHHDHLLSEHVIAIRAGKQRTISSATVARMNSQDSNTSVLEVVSEKPLSERLKVVPGETIDPIPHQLLRKYIGYARQYVYPRLSTEAARVLQDFYLELRKQSQRLNSSPITTRQLESLIRLTEARARLELREEATKEDAEDIVEIMKYSMLGTYSDEFGNLDFERSQHGSGMSNRSTAKRFISALNNVAERTYNNIFQFHQLRQIAKELNIQVADFENFIGSLNDQGYLLKKGPKVYQLQTM", "values": [{"measurement": "IFN-β level (mRNA, Q-PCR)", "setting": "IFN-β; poly(dA:dT) 24 h", "value": "below 250"}]}
{"molecule": "MCM8 (A276P): MCM8 with point mutation A276P in the LIR motif, found in Kawasaki disease patients (protein) MNGEYRGRGFGRGRFQSWKRGRGGGNFSGKWREREHRPDLSKTTGKRTSEQTPQFLLSTKTPQSMQSTLDRFIPYKGWKLYFSEVYSDSSPLIEKIQAFEKFFTRHIDLYDKDEIERKGSILVDFKELTEGGEVTNLIPDIATELRDAPEKTLACMGLAIHQVLTKDLERHAAELQAQEGLSNDGETMVNVPHIHARVYNYEPLTQLKNVRANYYGKYIALRGTVVRVSNIKPLCTKMAFLCAACGEIQSFPLPDGKYSLPTKCPVPVCRGRSFTPLRSSPLTVTMDWQSIKIQELMSDDQREAGRIPRTIECELVHDLVDSCVPGDTVTITGIVKVSNAEEGSRNKNDKCMFLLYIEANSISNSKGQKTKSSEDGCKHGMLMEFSLKDLYAIQEIQAEENLFKLIVNSLCPVIFGHELVKAGLALALFGGSQKYADDKNRIPIRGDPHILVVGDPGLGKSQMLQAACNVAPRGVYVCGNTTTTSGLTVTLSKDSSSGDFALEAGALVLGDQGICGIDEFDKMGNQHQALLEAMEQQSISLAKAGVVCSLPARTSIIAAANPVGGHYNKAKTVSENLKMGSALLSRFDLVFILLDTPNEHHDHLLSEHVIAIRAGKQRTISSATVARMNSQDSNTSVLEVVSEKPLSERLKVVPGETIDPIPHQLLRKYIGYARQYVYPRLSTEAARVLQDFYLELRKQSQRLNSSPITTRQLESLIRLTEARARLELREEATKEDAEDIVEIMKYSMLGTYSDEFGNLDFERSQHGSGMSNRSTAKRFISALNNVAERTYNNIFQFHQLRQIAKELNIQVADFENFIGSLNDQGYLLKKGPKVYQLQTM", "values": [{"measurement": "binding to LC3", "setting": "LC3; MCM8 constructs with or without LIR motif", "value": "greatly reduced"}]}
